Results as given in patent publication EP2787008B1 (Samsung Electronics Co., Ltd., dated 2019).

Molecular target: T1, huAbF46-H4-A1 (IgG2 Fc)
T1 construct: Human IgG2 hinge and constant region, human kappa; also called anti-c-Met antibody; biotinylated anti-c-Met antibody
Experiment: SPR, Biacore (GE healthcare); format not stated

T1 sequence (VH, as listed by the source, chain 1 of 2): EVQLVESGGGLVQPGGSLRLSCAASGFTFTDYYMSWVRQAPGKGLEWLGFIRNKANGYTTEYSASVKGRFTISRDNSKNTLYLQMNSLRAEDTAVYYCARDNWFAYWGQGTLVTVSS
T1 sequence (VL, as listed by the source, chain 2 of 2): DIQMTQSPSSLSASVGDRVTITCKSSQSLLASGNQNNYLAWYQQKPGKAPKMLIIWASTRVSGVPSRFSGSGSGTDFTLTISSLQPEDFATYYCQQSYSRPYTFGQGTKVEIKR

- Kd: 38.4 nM
- koff: 0.0032 s⁻¹
- kon: 85000 M⁻¹ s⁻¹
B1: EW02 (antibody, human IgG1, V domains shown)
VH: EVQLLESGGGLVQPGGSLRLSCAASGFTFSNYAMSWVRQAPGKGLEWVSSISSSGGNTYYADSVKGRFTISRDNSKNTLYLQMNSLGAEDTAVYYCAKYHSVFDYWGQGTLVTVSS
VL: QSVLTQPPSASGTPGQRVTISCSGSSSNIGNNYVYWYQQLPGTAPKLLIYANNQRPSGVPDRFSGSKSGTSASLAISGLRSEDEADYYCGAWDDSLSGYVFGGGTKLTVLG
notes: also called EW02 antibody
